Test system: hMSCs
Test: Serum starvation study of PDGF-BB bioactivity (cell proliferation)
Type: cell-based, human
Conditions: Invitrogen versus Prospec Bio
Protocol: At the initiation of this study, arbitrarily called “Day −2”, a vial of hMSCs was thawed, resuspended in 10% FBS DMEM, and seeded into 96 well TCPS plates at a seeding density of 12,500 cells/cm2 or 4000 cells/well. On “Day −1”, 24 hours following the initial cell seeding, the media in the wells was changed with DMEM prepared with various concentrations of FBS (Table 6). On Day 0, the media was supplemented with various concentrations of PDGF-BB (Prospec Bio or Invitrogen). PDGF-BB supplementation was done either once at Day 0, or continually for every 48-72 hours until Day 7.
At Days 4 and 7 following growth factor induction, cells were harvested for cell proliferation assay. Briefly, cell lysates (n=3 per media and PDGF-BB condition) were prepared by lysing cells in 0.1% Triton X-100. The PicoGreen reagent fluorescently labels double stranded DNA which was correlated to cell number using a standard curve. The PicoGreen reagent was added to the cell lysates and the fluorescence was detected with a plate reader at 485 nm excitation/528 nm emission.

B1: PDGF-BB from Invitrogen: Recombinant human PDGF-BB purchased from Invitrogen, used for subsequent studies (protein, UniProt P01127 82-190, looked up)
Platelet-derived growth …: SLGSLTIAEPAMIAECKTRTEVFEISRRLIDRTNANFLVWPPCVEVQRCSGCCNNRNVQCRPTQVQLRPVQVRKIEIVRKKPIFKKATVTLEDHLACKCETVAAARPVT
  bioactivity of PDGF-BB (cell proliferation studies): more bioactive

Reference: patent US10081794B2, “System and method for electrospun biodegradable scaffold for bone repair” (New Jersey Institute of Technology, priority 2011, dated 2018)
